Assay results published in paper PMC7763228, “Structural Studies of HNA Substrate Specificity in Mutants of an Archaeal DNA Polymerase Obtained by Directed Evolution”.

T1: TgoT_6G12 DNA polymerase (Thermococcus gorgonarius, UniProt P56689 1-773, V93Q;D141A;E143A;A485L;V589A;E609K;I610M;K659Q;E664Q;Q665P;R668K;D669Q;K671H;K67 …)
T1 sequence: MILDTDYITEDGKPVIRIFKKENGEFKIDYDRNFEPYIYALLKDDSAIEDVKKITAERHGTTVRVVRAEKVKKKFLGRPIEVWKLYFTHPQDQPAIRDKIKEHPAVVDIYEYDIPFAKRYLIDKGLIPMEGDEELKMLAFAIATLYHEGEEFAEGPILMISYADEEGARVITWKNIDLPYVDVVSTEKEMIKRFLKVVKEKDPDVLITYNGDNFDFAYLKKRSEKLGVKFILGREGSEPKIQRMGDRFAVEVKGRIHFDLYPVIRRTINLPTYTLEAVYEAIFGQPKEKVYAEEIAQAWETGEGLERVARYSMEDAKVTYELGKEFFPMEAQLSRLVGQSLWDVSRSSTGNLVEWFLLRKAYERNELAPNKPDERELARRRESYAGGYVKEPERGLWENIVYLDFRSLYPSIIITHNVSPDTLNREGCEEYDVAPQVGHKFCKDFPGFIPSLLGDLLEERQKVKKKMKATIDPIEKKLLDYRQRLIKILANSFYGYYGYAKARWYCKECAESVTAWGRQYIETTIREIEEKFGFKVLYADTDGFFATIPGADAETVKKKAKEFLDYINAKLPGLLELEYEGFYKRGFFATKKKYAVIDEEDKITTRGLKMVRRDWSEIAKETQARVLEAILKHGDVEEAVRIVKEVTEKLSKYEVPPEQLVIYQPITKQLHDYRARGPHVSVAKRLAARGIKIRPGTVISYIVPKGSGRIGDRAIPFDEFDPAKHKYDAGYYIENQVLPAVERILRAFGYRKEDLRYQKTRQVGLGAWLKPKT

B1: P5-T13' primer-template (dsDNA)
DNA 1: CGCAT
DNA 2: AACGGCAAATGCG
B2: P5-T13 primer-template (dsDNA)
DNA 1: CGCAT
DNA 2: AACGGCTAATGCG

Experiments:
TgoT_6G12 DNA polymerase [1] = molecular target: T1, TgoT_6G12 DNA polymerase; assay: X-ray crystallography; ternary complex with incoming ddTTP, 2 mM MnCl2, 3.15 A; 5% PEG 20K, 0.1 M MES-NaOH pH 6.0; Co-crystallization: protein 5 mg/mL with 1.5x primer-template, 5 mM ddTTP or hCTP/ddCTP, 2 mM MnCl2 (not stated for the 6G12 binary DNA complex); incubated at 4 C (binary) or room temperature; 5-10% PEG 20K, 0.1 M MES-NaOH pH 6.0-6.5; protein buffer 50 mM Tris-HCl pH 7.5, 200 mM NaCl, 0.1 mM EDTA, 1 mM …; details: protein: recombinant, template 5' overhang 8 nt
TgoT_6G12 DNA polymerase [2] = molecular target: T1, TgoT_6G12 DNA polymerase; assay: X-ray crystallography; binary complex, 2.8 A; ddTTP added; 10% PEG 20K, 0.1 M MES-NaOH pH 6.5; Co-crystallization: protein 5 mg/mL with 1.5x primer-template, 5 mM ddTTP or hCTP/ddCTP, 2 mM MnCl2 (not stated for the 6G12 binary DNA complex); incubated at 4 C (binary) or room temperature; 5-10% PEG 20K, 0.1 M MES-NaOH pH 6.0-6.5; protein buffer 50 mM Tris-HCl pH 7.5, 200 mM NaCl, 0.1 mM EDTA, 1 mM DTT; details: protein: recombinant, template 5' overhang 8 nt

| Binder | binding result (TgoT_6G12 DNA polymerase [1]) | binding result (TgoT_6G12 DNA polymerase [2]) |
| --- | --- | --- |
| B1 | binds | – |
| B2 | – | binds |
